Test results published in the supplement of paper PMC9170038.

Tested on: K4 kissing-loop RNA reporter
Experiment: apparent KD of K4 kissing-loop reporter; higher = weaker reporter binding
Details: Eterna round: R107
Experimental: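 RNA-MaP round R107: designed RNA switches with theophylline, tryptophan, arginine or FMN aptamers are transcribed on-chip within common flanks. They are titrated with a labelled K4 kissing-loop RNA reporter in RNA-MaP buffer (100 mM Tris pH 7.5, 80 mM KCl, 4 mM MgCl2), without ligand or with the indicated ligand. Median apparent KD per design.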

[1] = input ligand: theophylline 20 uM
[2] = input ligand: tryptophan 2.4 mM
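Further: bound reporter read as fluorescence of individual clusters on recovered sequencing chips by microscopy, with normalized cluster intensities fitted with a binding model.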

Sequence | apparent KD of K4 kissing-loop reporter (input ligand: FMN 200 uM) | apparent KD of K4 kissing-loop reporter (input ligand: arginine 13.2 mM) | apparent KD of K4 kissing-loop reporter (input ligand: none) | apparent KD of K4 kissing-loop reporter [1] | apparent KD of K4 kissing-loop reporter [2]
AAAAGAAAGUCGGCCGCCACUCAACGCAGUGAUGUUGCAAGACAGAAGACCAGUGAUGUUGGCCAGAGGACCGGGACAAAAGGCC [Same State Typtophan B GF 4] | 591 nM | 945 nM | 842 nM | 435 nM | 464 nM
AAAAGCAGAAAGACGCAUUAAAGAACCGAAGGAGCGCGGAAUUACGCAGGUAGGUCGCGGGAUAAGCGAGUGAUGUUCGCGAAAG [Arginine A Same State; Euphoria Solution] | 60.7 nM | 105 nM | 72.1 nM | 89.5 nM | 53.6 nM
AAAAUAAACCAGUGAUGUUGGUGUCCAGAUACCAGCGAUAAAAUUCGCCCUUGGCAGCUGUGGACGUACAAAAUAAGUACGUCCU [MatMod 3 - Jieux - Same State - Theophylline A] | 734 nM | 555 nM | 837 nM | 525 nM | 674 nM
AAAAUAAACCAGUGAUGUUGGUGUCCAGAUACCAGCGGUAAAAUCCGCCCUUGGCAGCUGUGGACGUACAAAAUAAGUACGUCCU [MatMod 4 - Jieux - Same State - Theophylline A] | 430 nM | 321 nM | 463 nM | 286 nM | 358 nM
AAAAUAAACCAGUGAUGUUGGUGUCUAGAUACCAGCGACAAAAGUCGCCCUUGGCAGCUACGGACGUACAAAAUAAGUACGUCCU [MatMod 9 - Jieux - Same State - Theophylline A] | 468 nM | 353 nM | 472 nM | 481 nM | 405 nM
AAAAUAAUCCAGUGAUGUUGGUAUUCAGAUACCAGCGACGAAAGUCGCCCUUGGCAGCUGUGGACGUACAAAAUAAGUACGUCCU | 967 nM | 657 nM | 1060 nM | 944 nM | 660 nM
AAAAUUGCGGUCGAUAGAACUUUUUGCUUACGAGGACCGGUACGGCCGCCACUCGAGUCAAGUGAUGUUUGAUUUUCUAUUAUUA [JR_ExcTryptoA_Sub014] | 112 nM | 166 nM | 141 nM | 176 nM | 98.5 nM
AAACUCAGUGAUGUUGAGUGGGAGCGGGAUACCAGAUCGCCCAUCAUCCCUUGGCAGCCCGAGCGUCAGAAUACAUUUCAUUUGC [theeternabot_sameState_KL_Theo_A_6] | 339 nM | 349 nM | 349 nM | 385 nM | 263 nM
AAAGACUGACUGCAAUUAGCAGUCAGUCAACGAGGACCGGUACGGCCGCCACUCGGGUCCUAGAGUGAUGUUCUAAUAAUAUAAA [AK1.2 SS Tryptophan A] | 374 nM | 495 nM | 319 nM | 490 nM | 207 nM
AAAGAUGCGUCGGCCGCCACUGUGAUCUACGAAAGUAGUAUGUAGAUGCAGUGAUGUUGCAUUUUCAGGACCGGGACGUAAGAUG [3rd] | 447 nM | 362 nM | 321 nM | 496 nM | 211 nM
AAAGGAUCAGAGAGUGAUGUUCUCUAAUAACGAGGACCGGUACGGCCGCCACUCGAAUAGAUCCAAGUCCUACGAAAAGUAGGAC [Omei inspired 8] | 274 nM | 217 nM | 316 nM | 308 nM | 210 nM
